Data on two molecules can be found in article PMC5725826, “Characterization of UGT716A1 as a Multi-substrate UDP:Flavonoid Glucosyltransferase Gene in Ginkgo biloba” (Frontiers in Plant Science, 2017).

The target of data set [1] is T1, UGT92K1 (Ginkgo biloba, UniProt A0A2Z2PC79).
T1 construct: gene UGT7
T1 sequence (A0A2Z2PC79 1-496): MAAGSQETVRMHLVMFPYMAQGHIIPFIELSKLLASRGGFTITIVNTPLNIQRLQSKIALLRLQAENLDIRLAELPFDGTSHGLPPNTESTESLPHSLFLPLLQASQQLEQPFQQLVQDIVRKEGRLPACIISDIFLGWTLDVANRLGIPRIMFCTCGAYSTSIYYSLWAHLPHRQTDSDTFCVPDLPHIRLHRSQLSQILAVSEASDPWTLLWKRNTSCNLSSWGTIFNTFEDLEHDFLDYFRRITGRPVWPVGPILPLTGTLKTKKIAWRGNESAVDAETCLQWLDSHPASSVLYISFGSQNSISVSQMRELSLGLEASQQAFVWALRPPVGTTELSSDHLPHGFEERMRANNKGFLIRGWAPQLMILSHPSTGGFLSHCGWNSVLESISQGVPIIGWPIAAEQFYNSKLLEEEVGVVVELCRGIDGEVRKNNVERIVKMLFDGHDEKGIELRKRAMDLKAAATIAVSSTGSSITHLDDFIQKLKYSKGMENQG
The data set is described as follows: HPLC glucosylation assay, product identified with authentic standard. The format is biochemical. The settings on record: 100 μM substrate; 4 mM UDP-glucose; Tris-HCl pH 7.0; 30°C; product genistein 7-O-glucoside.

Substrate in data set [2]: O=c1cc(-c2ccc(O)cc2)oc2cc(O)cc(O)c12
The data set can be described thus: purified protein. Conditions: 4 mM UDP-glucose, Tris-HCl pH 7.0, 30°C.

Substrate in data set [3]: COC(=O)c1cc(O)c(O)c(O)c1
The data set is described as follows: purified protein. Type of data set: biochemical, Ginkgo biloba. Conditions: 4 mM UDP-glucose, Tris-HCl pH 7.0, 30°C.

Substrate in data set [4]: O=C(O[C@@H]1Cc2c(O)cc(O)cc2O[C@@H]1c1cc(O)c(O)c(O)c1)c1cc(O)c(O)c(O)c1
The data set can be described thus: purified protein. The settings on record: 4 mM UDP-glucose, Tris-HCl pH 7.0, 30°C. Type of data set: biochemical, Ginkgo biloba.

Substrate in data set [5]: O=C(O[C@@H]1Cc2c(O)cc(O)cc2O[C@H]1c1cc(O)c(O)c(O)c1)c1cc(O)c(O)c(O)c1
The data set is described as follows: purified protein. Type of data set: biochemical, Ginkgo biloba. Conditions: 4 mM UDP-glucose, Tris-HCl pH 7.0, 30°C.

Substrate in data set [6]: O=C(O[C@@H]1Cc2c(O)cc(O)cc2O[C@H]1c1ccc(O)c(O)c1)c1cc(O)c(O)c(O)c1
The data set can be described thus: purified protein. Type of data set: biochemical, Ginkgo biloba. The settings on record: 4 mM UDP-glucose, Tris-HCl pH 7.0, 30°C.

Substrate in data set [7]: O=c1c(-c2ccc(O)cc2)coc2cc(O)cc(O)c12
The data set is described as follows: purified protein. The settings on record: 4 mM UDP-glucose, Tris-HCl pH 7.0, 30°C. The format is biochemical, Ginkgo biloba.

Substrate in data set [8]: O=c1c(O)c(-c2ccc(O)c(O)c2)oc2cc(O)cc(O)c12
The data set is described as follows: purified protein. The format is biochemical, Ginkgo biloba. The settings on record: 4 mM UDP-glucose, Tris-HCl pH 7.0, 30°C.

Substrate in data set [9]: O=c1cc(-c2ccc(O)c(O)c2)oc2cc(O)cc(O)c12
The data set can be described thus: purified protein. Conditions: 4 mM UDP-glucose, Tris-HCl pH 7.0, 30°C. The format is biochemical, Ginkgo biloba.

As to `O=c1c(-c2ccc(O)cc2)coc2cc(O)cc(O)c12` [genistein], in [1], the “HPLC glucosylation assay, product identified with authentic standard” value is “recombinant UGT92K1 protein only displayed activity toward genistein”.

B1: UGT716A1 (Ginkgo biloba) (protein)
chain: MEMAGGYIMVVPFHGQGHVFPCLELCKQLAARGVAVTIVASRSIRSSLQSIANHDASGLGVRIMELREATSEEQDAHPGPFLTDTLQEPFEEMLNNLAAEAAPLPLCVIGDVMVGWVTTVCDKFHIPRVPFFTSSACSIAFEYALWKHRPLDLKEDEAFAVPGFPESMPIALSDTLHRAPHPPDHHQRNPPPFPRRGHPPPPDRGHPPPFGHGGPPHGPPHPPTGPDSNPRSPPWMNGLNESSGFLVNTCRELEAPFIEYMVKETEKPVWAVGPLLPSSFWEGSITHDSSFRSRKSNIDEKQCLEWLNSKPPASVLYVSFGSEVGPSEEEIRELAYGLEAAQKPFIWVLQAGHHHPHHQEEAEEQDLLPAGFEHRLEGRGLIIRGWAPQLLILSHPSTGGFLSHCGWNSTVESIGHGVPLLAWPIRGDQHYNAKLLVAELKVAAMIHMPKDDGMVRREEIAKGVDVLLGSEHGEKLRERAVSLKLRLASCSGSSQKMLDAFVVHLSSLQKKL
Usually Km stands for the substrate concentration at which the rate is half of its maximum. Consider B1, for which the Km in data set [2] is 230 µM; in [3], 390 µM; in data set [4], 43 µM; in data set [5], 3.2 µM; in data set [6], 14 µM; in data set [7] it was 310 µM. The Km in [8] turned out to be 10 µM; in [9], 28 µM.
